Data published in PMC10397247.
One block for each binder: values may come before it.

Columns and labels:
4H1081-bN = biological target: T1, 4H1081-bN; experiment: two-hybrid library CCNG1; settings: mean of both orientations;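 further: natural log of median RNA to DNA barcode read ratio; higher means stronger binding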
T1 chain: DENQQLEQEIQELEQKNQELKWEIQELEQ

4H112-bN = biological target: T2, 4H112-bN; experiment: two-hybrid library CCNG1;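 further: natural log of median RNA to DNA barcode read ratio; higher means stronger binding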
T2 chain: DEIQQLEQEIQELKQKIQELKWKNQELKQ

4H1158-bN = biological target: T3, 4H1158-bN; experiment: two-hybrid library CCNG1;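 further: natural log of median RNA to DNA barcode read ratio; higher means stronger binding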
T3 chain: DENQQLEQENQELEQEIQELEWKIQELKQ

4H118-bN = biological target: T4, 4H118-bN; experiment: two-hybrid library CCNG1;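 further: natural log of median RNA to DNA barcode read ratio; higher means stronger binding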
T4 chain: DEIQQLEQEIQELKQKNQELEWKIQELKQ

4H1348-bN = biological target: T5, 4H1348-bN; experiment: two-hybrid library CCNG1
T5 chain: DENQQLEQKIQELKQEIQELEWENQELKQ

4H1373-bN = biological target: T6, 4H1373-bN; experiment: two-hybrid library CCNG1
T6 chain: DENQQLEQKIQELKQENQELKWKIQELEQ

4H1544-bN = biological target: T7, 4H1544-bN; experiment: two-hybrid library CCNG1
T7 chain: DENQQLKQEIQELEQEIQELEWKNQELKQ

4H170-bN = biological target: T8, 4H170-bN; experiment: two-hybrid library CCNG1
T8 chain: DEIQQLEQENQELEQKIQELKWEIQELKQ

4H1710-bN = biological target: T9, 4H1710-bN; experiment: two-hybrid library CCNG1
T9 chain: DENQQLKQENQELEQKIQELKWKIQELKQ

4H1831-bN = biological target: T10, 4H1831-bN; experiment: two-hybrid library CCNG1
T10 chain: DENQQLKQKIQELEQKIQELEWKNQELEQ

4H1899-bN = biological target: T11, 4H1899-bN; experiment: two-hybrid library CCNG1
T11 chain: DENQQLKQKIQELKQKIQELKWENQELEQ

4H1985-bN = biological target: T12, 4H1985-bN; experiment: two-hybrid library CCNG1
T12 chain: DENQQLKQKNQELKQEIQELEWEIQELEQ

4H2586-bN = biological target: T13, 4H2586-bN; experiment: two-hybrid library CCNG1
T13 chain: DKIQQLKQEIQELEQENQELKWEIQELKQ

4H2627-bN = biological target: T14, 4H2627-bN; experiment: two-hybrid library CCNG1
T14 chain: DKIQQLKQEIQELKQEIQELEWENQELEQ

4H2673-bN = biological target: T15, 4H2673-bN; experiment: two-hybrid library CCNG1
T15 chain: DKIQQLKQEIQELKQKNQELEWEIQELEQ

4H2702-bN = biological target: T16, 4H2702-bN; experiment: two-hybrid library CCNG1
T16 chain: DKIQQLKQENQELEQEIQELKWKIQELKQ

4H3010-bN = biological target: T17, 4H3010-bN; experiment: two-hybrid library CCNG1
T17 chain: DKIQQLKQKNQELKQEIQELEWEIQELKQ

4H3112-bN = biological target: T18, 4H3112-bN; experiment: two-hybrid library CCNG1
T18 chain: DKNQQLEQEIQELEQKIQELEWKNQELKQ

4H3162-bN = biological target: T19, 4H3162-bN; experiment: two-hybrid library CCNG1
T19 chain: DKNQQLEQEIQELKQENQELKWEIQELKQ

4H3175-bN = biological target: T20, 4H3175-bN; experiment: two-hybrid library CCNG1
T20 chain: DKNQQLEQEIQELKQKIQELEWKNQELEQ

4H3277-bN = biological target: T21, 4H3277-bN; experiment: two-hybrid library CCNG1
T21 chain: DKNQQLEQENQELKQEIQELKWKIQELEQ

4H3298-bN = biological target: T22, 4H3298-bN; experiment: two-hybrid library CCNG1
T22 chain: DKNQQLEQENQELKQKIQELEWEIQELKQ

4H3364-bN = biological target: T23, 4H3364-bN; experiment: two-hybrid library CCNG1
T23 chain: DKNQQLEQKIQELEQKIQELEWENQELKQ

4H3427-bN = biological target: T24, 4H3427-bN; experiment: two-hybrid library CCNG1
T24 chain: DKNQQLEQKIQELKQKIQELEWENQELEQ

4H346-bN = biological target: T25, 4H346-bN; experiment: two-hybrid library CCNG1
T25 chain: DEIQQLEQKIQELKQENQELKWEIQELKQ

4H3462-bN = biological target: T26, 4H3462-bN; experiment: two-hybrid library CCNG1
T26 chain: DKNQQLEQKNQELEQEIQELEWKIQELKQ

4H3497-bN = biological target: T27, 4H3497-bN; experiment: two-hybrid library CCNG1
T27 chain: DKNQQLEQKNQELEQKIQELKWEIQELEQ

4H3613-bN = biological target: T28, 4H3613-bN; experiment: two-hybrid library CCNG1
T28 chain: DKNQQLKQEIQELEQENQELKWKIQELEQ

4H3628-bN = biological target: T29, 4H3628-bN; experiment: two-hybrid library CCNG1
T29 chain: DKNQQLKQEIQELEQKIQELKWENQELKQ

4H3926-bN = biological target: T30, 4H3926-bN; experiment: two-hybrid library CCNG1; settings: mean of both orientations
T30 chain: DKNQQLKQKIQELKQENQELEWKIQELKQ

4H4073-bN = biological target: T31, 4H4073-bN; experiment: two-hybrid library CCNG1
T31 chain: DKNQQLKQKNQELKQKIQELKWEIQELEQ

4H457-bN = biological target: T32, 4H457-bN; experiment: two-hybrid library CCNG1
T32 chain: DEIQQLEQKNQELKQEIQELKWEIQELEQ

4H575-bN = biological target: T33, 4H575-bN; experiment: two-hybrid library CCNG1
T33 chain: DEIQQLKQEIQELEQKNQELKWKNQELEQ

4H591-bN = biological target: T34, 4H591-bN; experiment: two-hybrid library CCNG1
T34 chain: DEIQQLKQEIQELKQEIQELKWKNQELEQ

4H626-bN = biological target: T35, 4H626-bN; experiment: two-hybrid library CCNG1
T35 chain: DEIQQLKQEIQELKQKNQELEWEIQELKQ

4H683-bN = biological target: T36, 4H683-bN; experiment: two-hybrid library CCNG1
T36 chain: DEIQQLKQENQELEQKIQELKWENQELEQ

4H754-bN = biological target: T37, 4H754-bN; experiment: two-hybrid library CCNG1
T37 chain: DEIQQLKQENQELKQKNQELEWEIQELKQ

4H780-bN = biological target: T38, 4H780-bN; experiment: two-hybrid library CCNG1
T38 chain: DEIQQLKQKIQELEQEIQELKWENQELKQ

4H797-bN = biological target: T39, 4H797-bN; experiment: two-hybrid library CCNG1
T39 chain: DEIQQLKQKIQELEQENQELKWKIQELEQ

4H855-bN = biological target: T40, 4H855-bN; experiment: two-hybrid library CCNG1
T40 chain: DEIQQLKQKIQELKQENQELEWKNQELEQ

4H906-bN = biological target: T41, 4H906-bN; experiment: two-hybrid library CCNG1
T41 chain: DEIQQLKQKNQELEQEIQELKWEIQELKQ

4H918-bN = biological target: T42, 4H918-bN; experiment: two-hybrid library CCNG1
T42 chain: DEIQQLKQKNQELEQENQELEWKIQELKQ

4H953-bN = biological target: T43, 4H953-bN; experiment: two-hybrid library CCNG1
T43 chain: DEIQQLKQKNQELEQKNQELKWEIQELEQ

4H968-bN = biological target: T44, 4H968-bN; experiment: two-hybrid library CCNG1
T44 chain: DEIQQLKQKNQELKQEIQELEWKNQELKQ

Core_NINN-es_KKKK = biological target: T45, Core_NINN-es_KKKK; experiment: two-hybrid library CCmax; settings: mean of both orientations
T45 chain: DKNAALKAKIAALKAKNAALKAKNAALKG

4H264-bN = biological target: T46, 4H264-bN; experiment: two-hybrid library CCNG1
T46 chain: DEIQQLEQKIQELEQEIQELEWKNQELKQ

4H2760-bN = biological target: T47, 4H2760-bN; experiment: two-hybrid library CCNG1
T47 chain: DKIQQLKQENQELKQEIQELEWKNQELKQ

4H2859-bN = biological target: T48, 4H2859-bN; experiment: two-hybrid library CCNG1
T48 chain: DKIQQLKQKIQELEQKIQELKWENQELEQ

4H2931-bN = biological target: T49, 4H2931-bN; experiment: two-hybrid library CCNG1
T49 chain: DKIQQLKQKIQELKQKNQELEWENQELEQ

4H3041-bN = biological target: T50, 4H3041-bN; experiment: two-hybrid library CCNG1
T50 chain: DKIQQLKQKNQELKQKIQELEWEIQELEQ

4H3297-bN = biological target: T51, 4H3297-bN; experiment: two-hybrid library CCNG1
T51 chain: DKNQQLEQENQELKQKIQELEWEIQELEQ

4H3381-bN = biological target: T52, 4H3381-bN; experiment: two-hybrid library CCNG1
T52 chain: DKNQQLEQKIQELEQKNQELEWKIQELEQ

4H349-bN = biological target: T53, 4H349-bN; experiment: two-hybrid library CCNG1
T53 chain: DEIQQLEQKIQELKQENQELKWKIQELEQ

4H56-bN = biological target: T54, 4H56-bN; experiment: two-hybrid library CCNG1
T54 chain: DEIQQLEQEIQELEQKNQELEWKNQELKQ

4H570-bA = biological target: T55, 4H570-bA; experiment: two-hybrid library CCNG1
T55 chain: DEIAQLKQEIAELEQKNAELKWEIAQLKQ

4H730-bN = biological target: T56, 4H730-bN; experiment: two-hybrid library CCNG1
T56 chain: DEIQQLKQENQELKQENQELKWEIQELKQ

4H796-bN = biological target: T57, 4H796-bN; experiment: two-hybrid library CCNG1
T57 chain: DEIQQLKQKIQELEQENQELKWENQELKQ

4H932-bN = biological target: T58, 4H932-bN; experiment: two-hybrid library CCNG1
T58 chain: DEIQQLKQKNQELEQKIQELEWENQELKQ

4H949-bN = biological target: T59, 4H949-bN; experiment: two-hybrid library CCNG1
T59 chain: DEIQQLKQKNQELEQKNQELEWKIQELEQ

P10A-bN = biological target: T60, P10A-bN; experiment: two-hybrid library CCNG1
T60 chain: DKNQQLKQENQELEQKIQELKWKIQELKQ

interaction score (4H1081-bN): -0.711
interaction score (4H112-bN): -0.856
interaction score (4H1158-bN): -1.04
interaction score (4H118-bN): -0.492
interaction score (4H1348-bN): -1.49
interaction score (4H1373-bN): -1.6
interaction score (4H1544-bN): -1.22
interaction score (4H170-bN): -1.72
interaction score (4H1710-bN): -2
interaction score (4H1831-bN): -0.661
interaction score (4H1899-bN): -0.693
interaction score (4H1985-bN): -1.65
interaction score (4H2586-bN): -0.764
interaction score (4H2627-bN): -0.602
interaction score (4H2673-bN): -0.316
interaction score (4H2702-bN): 0.0755
interaction score (4H3010-bN): -0.379
interaction score (4H3112-bN): -0.643
interaction score (4H3162-bN): -1.74
interaction score (4H3175-bN): -0.589
interaction score (4H3277-bN): -2.73
interaction score (4H3298-bN): -1.1
interaction score (4H3364-bN): 0.163
interaction score (4H3427-bN): -0.819
interaction score (4H346-bN): -0.916
interaction score (4H3462-bN): -0.385
interaction score (4H3497-bN): -0.836
interaction score (4H3613-bN): -1.17
interaction score (4H3628-bN): -0.745
interaction score (4H3926-bN): 1.86
interaction score (4H4073-bN): -0.961
interaction score (4H457-bN): -0.831
interaction score (4H575-bN): -1.36
interaction score (4H591-bN): -1
interaction score (4H626-bN): -1.12
interaction score (4H683-bN): -0.818
interaction score (4H754-bN): -0.498
interaction score (4H780-bN): -1.12
interaction score (4H797-bN): -0.855
interaction score (4H855-bN): -1.78
interaction score (4H906-bN): -1.43
interaction score (4H918-bN): -1.87
interaction score (4H953-bN): -0.906
interaction score (4H968-bN): -1.97
B1: 4H1081-bN (peptide)
chain: DENQQLEQEIQELEQKNQELKWEIQELEQ

interaction score (Core_NINN-es_KKKK): 2
B2: Core_NINN-es_EEEE (peptide)
chain: DENAALEAEIAALEAENAALEAENAALEG

interaction score (4H264-bN): -0.816
interaction score (4H2760-bN): -0.23
interaction score (4H2859-bN): 1.92
interaction score (4H2931-bN): 1.31
interaction score (4H3041-bN): 1.54
interaction score (4H3297-bN): 0.44
interaction score (4H3364-bN): 0.517
interaction score (4H3381-bN): 0.605
interaction score (4H349-bN): 0.605
interaction score (4H56-bN): 0.479
interaction score (4H570-bA): -2.9
interaction score (4H730-bN): 0.137
interaction score (4H796-bN): -0.162
interaction score (4H932-bN): -0.218
interaction score (4H949-bN): -0.338
interaction score (P10A-bN): -2.47
B3: 4H264-bN (peptide)
chain: DEIQQLEQKIQELEQEIQELEWKNQELKQ
